Km, kcat and kcat/Km data for one protein are collected here from publication PMC4322223, “Biochemical and structural characterization of a thermostable β-glucosidase from Halothermothrix orenii for galacto-oligosaccharide synthesis” (Applied Microbiology and Biotechnology, 2014).

Experiment in all cases: purified protein
Conditions in all cases: 65 °C, 20 mM HEPES, 150 mM NaCl, pH 7.0

Substrate in data set [1]: O=[N+]([O-])c1ccc(O[C@@H]2O[C@H](CO)[C@@H](O)[C@H](O)[C@H]2O)cc1
Substrate in data set [2]: O=[N+]([O-])c1ccc(O[C@@H]2O[C@H](CO)[C@H](O)[C@H](O)[C@H]2O)cc1
Substrate in data set [3]: O=[N+]([O-])c1ccccc1O[C@@H]1O[C@H](CO)[C@H](O)[C@H](O)[C@H]1O
In kind it is biochemical, Halothermothrix orenii.

Substrate in data set [4]: O=[N+]([O-])c1ccccc1O[C@@H]1O[C@H](CO)[C@@H](O)[C@H](O)[C@H]1O
In kind it is biochemical, Halothermothrix orenii.

B1: HoBGLA (Halothermothrix orenii H 168) (protein)
chain: MAKIIFPEDFIWGAATSSYQIEGAFNEDGKGESIWDRFSHTPGKIENGDTGDIACDHYHLYREDIELMKEIGIRSYRFSTSWPRILPEGKGRVNQKGLDFYKRLVDNLLKANIRPMITLYHWDLPQALQDKGGWTNRDTAKYFAEYARLMFEEFNGLVDLWVTHNEPWVVAFEGHAFGNHAPGTKDFKTALQVAHHLLLSHGMAVDIFREEDLPGEIGITLNLTPAYPAGDSEKDVKAASLLDDYINAWFLSPVFKGSYPEELHHIYEQNLGAFTTQPGDMDIISRDIDFLGINYYSRMVVRHKPGDNLFNAEVVKMEDRPSTEMGWEIYPQGLYDILVRVNKEYTDKPLYITENGAAFDDKLTEEGKIHDEKRINYLGDHFKQAYKALKDGVPLRGYYVWSLMDNFEWAYGYSKRFGLIYVDYENGNRRFLKDSALWYREVIEKGQVEAN
notes: full length, 451 residues, GH1; pNIC28-Bsa4 N-terminal His6-TEV tag cut off with TEV protease; expressed in E. coli BL21(DE3); 53 kDa
For B1, the Km (commonly the substrate concentration at which the rate is half of its maximum) in the data set “purified protein [1]” was found to be 0.296 ± 0.001 mM; in the data set “purified protein [2]” it was 8.34 ± 0.61 mM; in “purified protein [3]”, 6.35 ± 0.8 mM; in the data set “purified protein [4]”, 0.386 ± 0.002 mM. For the same protein, the kcat – broadly, the number of substrate molecules converted per active site and unit of time at saturation – in the data set “purified protein [1]” worked out at 55.2 s⁻¹; in the data set “purified protein [2]” it was 156 s⁻¹; in “purified protein [3]”, 288 s⁻¹; in the data set “purified protein [4]”, 94.6 s⁻¹. Also, the kcat/Km (in general, the turnover number divided by the Michaelis constant) in the data set “purified protein [1]” worked out at 187000 M⁻¹ s⁻¹; in the data set “purified protein [2]”, 18700 M⁻¹ s⁻¹; in the data set “purified protein [3]” it was 45300 M⁻¹ s⁻¹; in “purified protein [4]”, 245000 M⁻¹ s⁻¹.
